The target of the test is T1, mutant S100A4 (C3S, C76S, C81S, C86S) (human, UniProt P26447 1-101, C3S | C76S | C81S | C86S).
T1 construct: human S100A4 with all four cysteines mutated to serines; residue numbers 1-101 in the HSQC bar graph; 15N-labelled where it was the observed protein in HSQC; No tag is named; also called mS100A4; quadruple mutant S100A4; source: E. coli BL21 (DE3), pET21b, purified (ammonium sulfate, Hi-Prep Q XL, Hi-Prep Phenyl FF, Superdex 75)
In words: other fluorescence titration; intrinsic tryptophan fluorescence of EGF (8 uM), excitation 295 nm, emission at 345 nm; mS100A4 added at 0-22 uM; double-reciprocal plot, one-site binding model. Particulars: both partners purified.

The values below come from paper PMC4999211, “Amlexanox Blocks the Interaction between S100A4 and Epidermal Growth Factor and Inhibits Cell Proliferation” (PLoS ONE, 2016).

T1 sequence (P26447 whole entry C3S/C76S/C81S/C86S, one chain of several): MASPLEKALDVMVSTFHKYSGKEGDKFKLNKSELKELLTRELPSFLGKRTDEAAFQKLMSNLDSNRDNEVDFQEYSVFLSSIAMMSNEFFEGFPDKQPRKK

B1: human epidermal growth factor (ligand, UniProt P01133 971-1023, looked up)
chain: NSDSECPLSHDGYCLHDGVCMYIEALDKYACNCVVGYIGERCQYRDLKWWELR
notes: human epidermal growth factor, the mature hormone cut from pro-EGF; three disulfide bonds; 15N-labelled where it was the observed protein in HSQC; also called EGF; recombinant EGF
By Kd is commonly meant the concentration at which binding is half-saturated. Higher therefore signals weaker binding. B1 yielded a dissociation constant Kd of 5.2 µM.
